# In the supplement of paper PMC9233669:
# Variants at the floor of the assay were thinned out.
# How the values were obtained:
# [1] = system: biotinyl-Phe-oxazolone; assay: self-aminoacylation, catalytic enhancement (BFO) (fold over background); higher = more active; k-Seq, kA / k0A0; sequences stand for … in GGGAAUGGAUCCACAUCUACGAAUUC…UUCACUGCAGACUUGACGAAGCUG
# Summary of the method: (§1)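 Each biotinyl-aminoacyl-oxazolone, at 2–1250 μM, was incubated with mutagenized RNA pools (0.43 μM) carrying a 21-nt variable region. The 50 μL reactions contained HEPES/NaCl/KCl/MgCl2/CaCl2 buffer with 5% acetonitrile at pH 6.9–7.0 and ran for 90 minutes at room temperature. After streptavidin capture, RNA was measured by qPCR in triplicate and by Illumina sequencing, and catalytic enhancement was calculated as median kA over the uncatalyzed rate from a pseudo-first-order fit of per-sequence fraction reacted.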
# [2] = system: biotinyl-Ile-oxazolone; assay: self-aminoacylation, catalytic enhancement (BIO) (fold over background); higher = more active; k-Seq, kA / k0A0; sequences stand for … in GGGAAUGGAUCCACAUCUACGAAUUC…UUCACUGCAGACUUGACGAAGCUG
# Summary of the method: as §1
# [3] = system: biotinyl-Met-oxazolone; assay: self-aminoacylation, catalytic enhancement (BMO) (fold over background); higher = more active; k-Seq, kA / k0A0; sequences stand for … in GGGAAUGGAUCCACAUCUACGAAUUC…UUCACUGCAGACUUGACGAAGCUG
# Summary of the method: as §1
# [4] = system: biotinyl-Val-oxazolone; assay: self-aminoacylation, catalytic enhancement (BVO) (fold over background); higher = more active; k-Seq, kA / k0A0; sequences stand for … in GGGAAUGGAUCCACAUCUACGAAUUC…UUCACUGCAGACUUGACGAAGCUG
# Summary of the method: as §1
# [5] = system: biotinyl-Leu-oxazolone; assay: self-aminoacylation, catalytic enhancement (BLO) (fold over background); higher = more active; k-Seq, kA / k0A0; sequences stand for … in GGGAAUGGAUCCACAUCUACGAAUUC…UUCACUGCAGACUUGACGAAGCUG
# Summary of the method: as §1
# [6] = system: biotinyl-Trp-oxazolone; assay: self-aminoacylation, catalytic enhancement (BWO) (fold over background); higher = more active; k-Seq, kA / k0A0; sequences stand for … in GGGAAUGGAUCCACAUCUACGAAUUC…UUCACUGCAGACUUGACGAAGCUG
# Summary of the method: as §1
Sequence,self-aminoacylation [1],self-aminoacylation [2],self-aminoacylation [3],self-aminoacylation [4],self-aminoacylation [5],self-aminoacylation [6]
CUACUUCGAAGAAUCGGUCUG [Fam1A.1 aminoacylation ribozyme variant],0.287,0.875,0.933,0.839,0.757,0.567
CUACUUCGAGCAAUCGGUCUG [Fam1A.1 aminoacylation ribozyme variant],0.728,0.951,1.15,1.01,0.815,0.703
CUACUUCGCACAAUCGGUCUG [Fam1A.1 aminoacylation ribozyme variant],0.439,0.867,0.94,0.961,0.999,0.591
CUACUUCUAACAAUCGAUCUG [Fam1A.1 aminoacylation ribozyme variant],0.698,0.674,0.522,0.67,0.509,0.416
CUACUUCUAACAAUCGGCCUG [Fam1A.1 aminoacylation ribozyme variant],1.01,1.09,0.997,1.2,1.31,1.05
CUACUUCUAACAAUCGGUCUC [Fam1A.1 aminoacylation ribozyme variant],0.799,0.686,0.634,0.664,0.572,0.571
CUACUUCUAACAAUCGGUCUU [Fam1A.1 aminoacylation ribozyme variant],0.801,0.748,0.701,0.871,0.753,0.465
CUACUUCUAACGAUCGGUCUG [Fam1A.1 aminoacylation ribozyme variant],0.785,0.675,0.747,0.688,0.622,0.505
CUACUUCUAAUAAUCGGUCUG [Fam1A.1 aminoacylation ribozyme variant],1.02,0.776,0.699,0.792,0.63,0.774
CUACUUGAAACAACCGGUCUG [Fam1A.1 aminoacylation ribozyme variant],0.529,1.07,1.18,1.01,0.805,1.24
CUACUUGAAACAAUCCGUCUG [Fam1A.1 aminoacylation ribozyme variant],0.462,0.813,1.03,0.836,0.759,1.44
CUACUUGAAACAAUCUGUCUG [Fam1A.1 aminoacylation ribozyme variant],0.472,0.655,0.747,0.657,0.636,0.496
CUACUUGAAUCAAUCGGUCUG [Fam1A.1 aminoacylation ribozyme variant],0.466,0.857,0.811,0.782,0.705,0.582
CUACUUGGAACAAUCGGUCUG [Fam1A.1 aminoacylation ribozyme variant],0.848,0.831,0.904,0.833,0.788,0.642
CUACUUUAAACAACCGGUCUG [Fam1A.1 aminoacylation ribozyme variant],0.725,0.909,0.996,0.973,0.978,1.07
CUACUUUAAACAAUAGGUCUG [Fam1A.1 aminoacylation ribozyme variant],0.945,0.925,0.979,0.891,0.841,0.648
CUACUUUAAACAGUCGGUCUG [Fam1A.1 aminoacylation ribozyme variant],0.582,0.837,0.765,0.845,0.812,0.651
CUACUUUAAAUAAUCGGUCUG [Fam1A.1 aminoacylation ribozyme variant],1.03,0.923,0.869,0.902,0.82,0.885
CUACUUUAUACAAUCGGUCUG [Fam1A.1 aminoacylation ribozyme variant],0.815,0.857,0.832,0.882,0.808,0.626
CUAGUCCAAACAAUCGGUCUG [Fam1A.1 aminoacylation ribozyme variant],1.03,0.963,0.736,0.767,0.755,1.01
CUAGUUCAAACAAGCGGUCUG [Fam1A.1 aminoacylation ribozyme variant],1.21,1.2,1.54,0.93,1.08,1.19
CUAGUUCAAACAAUCGGCCUG [Fam1A.1 aminoacylation ribozyme variant],12.4,1.71,1.76,1.84,2.2,11.2
CUAGUUCAAACAAUCGGUCCG [Fam1A.1 aminoacylation ribozyme variant],0.893,0.787,0.742,0.649,0.745,0.582
CUAGUUCAAACAAUCGGUCUC [Fam1A.1 aminoacylation ribozyme variant],9.67,0.896,0.795,0.863,1.25,5.9
CUAGUUCAAACAAUCGGUCUU [Fam1A.1 aminoacylation ribozyme variant],5.06,1.14,1.25,1.01,1.26,3.27
CUAGUUCAAACAAUCGGUGUG [Fam1A.1 aminoacylation ribozyme variant],1.63,0.992,1.4,0.947,1.63,1.79
